Reference: article PMC9340783, “Development of a fully human anti‐GITR antibody with potent antitumor activity using H2L2 mice” (FEBS Open Bio, 2022)
Numbering of substitutions follows the chain as printed. In names and notes the source's numbering stands.

T1: cynoGITR on 293F‐cynoGITR cells (Macaca fascicularis)
T1 construct: also called 293F‐cGITR
T1 chain: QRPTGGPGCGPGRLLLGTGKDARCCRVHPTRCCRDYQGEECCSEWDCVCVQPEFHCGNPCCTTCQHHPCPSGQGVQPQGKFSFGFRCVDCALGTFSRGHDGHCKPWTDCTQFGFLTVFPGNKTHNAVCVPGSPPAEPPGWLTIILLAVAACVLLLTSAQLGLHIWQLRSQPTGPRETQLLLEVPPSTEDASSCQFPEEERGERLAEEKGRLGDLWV

T2: cynoGITR ECD hFc (Macaca fascicularis)
T2 construct: cynomolgus GITR, extracellular domain, Gln20-Glu155, NCBI XP_005545180.1; also called cynoGITR protein; cGITR; source: FreeStyle 293F, transiently transfected, purified by protein A
T2 chain: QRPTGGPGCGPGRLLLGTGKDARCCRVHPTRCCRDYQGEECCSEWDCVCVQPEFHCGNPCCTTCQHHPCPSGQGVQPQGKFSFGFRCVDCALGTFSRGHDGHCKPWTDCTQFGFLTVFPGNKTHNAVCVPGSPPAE

B1: mAb070 (antibody, V domains shown)
VH: QVQLVESGGGVVQPGRSLRLSCAASGFTFSSYGMHWVRQAPGKGLEWVAVIWYETSNKFYVDSVKGRFTISRDNSKNTLYLQMNSLRAEDTAVYYCARYGASSGWYWYFDLWGRGTLVTVSS
VL: DIQLTQSPSFLSASVGDRVTITCRASQGISSFLAWYQQKPGKAPKLLIYAASTLQSGVPSRFSGSGSGTEFTLTISSLQPEDFATYCCQQLNSYPFTFGQGTKLEIK
notes: as the VH of m14; as the VL of m14; Human-murine chimeric antibody from H2L2 mice: human variable regions, rat constant regions; source: hybridoma cell culture supernatant, purified (Protein A)
B2: hab064 (antibody, V domains shown)
VH: B1 VH with F59Y, V61A, S85N, A101G, S102N
VL: B1 VL with K42T
notes: 3503‐hab064‐VH; 3503‐hab064‐Vk; Whole antibody, human IgG1 heavy chain constant region, human kappa light chain constant region; source: FreeStyle 293F, transiently co-transfected, purified from culture supernatant
B3: hab064e1 (antibody, V domains shown)
VH: B1 VH with F59Y, V61A, A101G, S102N
VL: B1 VL with C87Y
notes: 3503‐hab064‐VH(N2S); the substitution is against the VH of m13; position not given; 3503‐hab064‐Vk(T2K/C2Y); the substitutions are against the VL of m13; positions not given; Whole antibody, human IgG1 heavy chain constant region, human kappa light chain constant region; source: FreeStyle 293F, transiently co-transfected, purified from culture supernatant
B4: mAb076 (antibody, V domains shown)
VH: B1 VH with F59Y, V61A
VL: B1 VL with F32Y
notes: as the VH of m15; as the VL of m15; Human-murine chimeric antibody from H2L2 mice: human variable regions, rat constant regions; source: hybridoma cell culture supernatant, purified (Protein A)
B5: mAb064 (antibody, V domains shown)
VH: B1 VH with F59Y, V61A, S85N, A101G, S102N
VL: B1 VL with K42T
notes: as the VH of m13; as the VL of m13; Human-murine chimeric antibody from H2L2 mice: human variable regions, rat constant regions; source: hybridoma cell culture supernatant, purified (Protein A)
B6: hab076e1 (antibody, V domains shown)
VH: B1 VH with F59Y, V61A
VL: B1 VL with F32Y, C87Y
notes: as the VH of m15 (3503‐hab076‐VH); 3503‐hab076‐Vk(C2Y); the substitution is against the VL of m15 (Cys in FR3 of VL); position not given; Whole antibody, human IgG1 heavy chain constant region, human kappa light chain constant region; source: FreeStyle 293F, transiently co-transfected, purified from culture supernatant
B7: hab070 (antibody, V domains shown)
VH: B1 VH
VL: B1 VL
notes: 3503‐hab070‐VH; 3503‐hab070‐Vk; Whole antibody, human IgG1 heavy chain constant region, human kappa light chain constant region; source: FreeStyle 293F, transiently co-transfected, purified from culture supernatant
B8: mAb019 (antibody, V domains shown)
VH: QVQLVESGGGVVQPGRSLRLSCAASGFTFSSYGMHWVRQAPGKGLEWVAVIWYAGSRKFYADSVEGRFTISRDNSKNTLYLQMSSVRPEDTAVYYCARGGSLDGGFFYYGMDVWGQGTTVTVSS
VL: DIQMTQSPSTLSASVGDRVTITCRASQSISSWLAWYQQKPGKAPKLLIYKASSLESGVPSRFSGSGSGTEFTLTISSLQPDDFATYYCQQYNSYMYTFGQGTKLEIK
notes: as the VH of m12 (hab019 was made from the variable regions of mAb019); as the VL of m12; Human-murine chimeric antibody from H2L2 mice: human variable regions, rat constant regions; source: hybridoma cell culture supernatant, purified (Protein A)
B9: hab019e1 (antibody, V domains shown)
VH: B8 VH with S84N, V86L, P88A
VL: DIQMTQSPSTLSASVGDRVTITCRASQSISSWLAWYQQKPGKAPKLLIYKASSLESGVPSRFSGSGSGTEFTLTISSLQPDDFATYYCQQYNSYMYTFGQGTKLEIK
notes: 3503‐hab019‐VH(DG + NLA); positions not given; as the VL of m12 (3503‐hab019‐Vk); Whole antibody, human IgG1 heavy chain constant region, human kappa light chain constant region; source: FreeStyle 293F, transiently co-transfected, purified from culture supernatant
B10: hab019e3 (antibody, V domains shown)
VH: B8 VH with S84N, V86L, P88A, G104A
VL: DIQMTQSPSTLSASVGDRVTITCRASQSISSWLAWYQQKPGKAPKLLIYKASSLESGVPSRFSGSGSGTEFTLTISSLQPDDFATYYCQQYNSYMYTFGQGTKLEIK
notes: 3503‐hab019‐VH(DA + NLA); positions not given; as the VL of m12 (3503‐hab019‐Vk); Whole antibody, human IgG1 heavy chain constant region, human kappa light chain constant region; source: FreeStyle 293F, transiently co-transfected, purified from culture supernatant
B11: hab019 (antibody, V domains shown)
VH: B8 VH
VL: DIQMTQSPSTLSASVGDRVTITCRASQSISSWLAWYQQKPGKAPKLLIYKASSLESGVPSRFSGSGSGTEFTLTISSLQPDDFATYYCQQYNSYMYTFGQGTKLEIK
notes: 3503‐hab019‐VH; 3503‐hab019‐Vk; Whole antibody, human IgG1 heavy chain constant region, human kappa light chain constant region; source: FreeStyle 293F, transiently co-transfected, purified from culture supernatant

What was measured:
[1] = target: T3, human GITR on 293F‐hGITR cells (Homo sapiens (Human)., UniProt Q9Y5U5-1); assay: flow cytometry on cells; 293F‐hGITR or 293F‐cynoGITR cells incubated with antibodies at 4 °C for 1 h, fluorescent anti-rat/human secondary antibody; EC50 of MFI curve; details: one partner purified
T3 construct: Also used as the target of the functional rows (Jurkat‐hGITR‐NF‐ĸB‐Luc cells made with the same lentiviral construct; endogenous GITR on human T cells)

[2] = target: T1, cynoGITR on 293F‐cynoGITR cells; assay: as above; details: one partner purified
[3] = target: T3, human GITR on 293F‐hGITR cells; assay: cell-based or functional assay
cynoGITR ECD hFc = target: T2, cynoGITR ECD hFc; assay: ELISA; indirect ELISA; antigen hFc fusion protein coated on 96-well plates (1 μg·mL^−1 overnight at 4 °C in Fig. 3B), antibody added, detected with anti-rat IgG/hIgG-peroxidase antibody; details: both partners purified
hGITR ECD hFc [4] = target: T4, hGITR ECD hFc (Homo sapiens (Human)., UniProt Q9Y5U5, Thr45Ala); assay: as above; details: both partners purified
T4 construct: human GITR (glucocorticoid-induced TNF receptor-related), extracellular domain, Gln26-Glu161 with Thr45Ala, UniProt Q9Y5U5.1; also called human GITR protein; source: FreeStyle 293F, transiently transfected, purified by protein A

hGITR ECD hFc [5] = target: T4, hGITR ECD hFc; assay: SPR; Biacore T200; hGITR ECD hFc immobilised on a Series S CM5 chip; antibody 0, 3.125, 6.25, 12.5, 25 and 50 nM; association 180 s, dissociation 600 s; details: both partners purified

T3 sequence (Q9Y5U5 26-241): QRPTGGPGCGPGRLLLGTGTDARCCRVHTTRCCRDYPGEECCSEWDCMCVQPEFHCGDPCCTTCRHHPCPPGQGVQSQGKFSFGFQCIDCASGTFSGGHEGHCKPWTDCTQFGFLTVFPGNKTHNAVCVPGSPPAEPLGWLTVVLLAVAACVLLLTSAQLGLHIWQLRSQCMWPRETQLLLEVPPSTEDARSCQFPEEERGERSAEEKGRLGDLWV

| Binder | EC50 [1] | EC50 [2] | NF‐ĸB luciferase reporter assay, Crosslinking, EC50 [3] | NF‐ĸB luciferase reporter assay, Crosslinking, Top ratio [3] | NF‐ĸB luciferase reporter assay, No crosslinking, EC50 [3] | NF‐ĸB luciferase reporter assay, No crosslinking, Top ratio [3] | EC50 (cynoGITR ECD hFc) | EC50 (hGITR ECD hFc [4]) | Kd (hGITR ECD hFc [5]) |
| --- | --- | --- | --- | --- | --- | --- | --- | --- | --- |
| B1 | 0.358 nM | 0.198 nM | > 0.09 nM | 7 fold | 0.062 nM | 10 fold | 0.025 nM | 0.022 nM | – |
| B2 | 0.165 nM | 0.22 nM | 7.13 nM | 12 fold | 0.177 nM | 10 fold | 0.108 nM | 0.106 nM | 0.592 nM |
| B3 | 0.235 nM | 0.313 nM | 9.26 nM | 12 fold | 0.264 nM | 11 fold | 0.096 nM | 0.093 nM | – |
| B4 | 0.152 nM | 0.226 nM | > 0.27 nM | 8 fold | > 0.09 nM | 14 fold | 0.012 nM | 0.01 nM | – |
| B5 | 0.385 nM | 0.404 nM | 0.101 nM | 7 fold | > 0.2 nM | 10 fold | 0.035 nM | 0.038 nM | – |
| B6 | 0.195 nM | 0.26 nM | 5.16 nM | 13 fold | 0.264 nM | 8 fold | 0.094 nM | 0.087 nM | – |
| B7 | 0.19 nM | 0.19 nM | 7.32 nM | 16 fold | 0.111 nM | 9 fold | 0.106 nM | 0.099 nM | 0.251 nM |
| B8 | 0.163 nM | 0.011 nM | 12.5 nM | 11 fold | – | 20 fold | 0.007 nM | 0.008 nM | – |
| B9 | 0.181 nM | 0.287 nM | 9.46 nM | 12 fold | 0.26 nM | 8 fold | 0.079 nM | 0.082 nM | – |
| B10 | 0.215 nM | 0.277 nM | 8.75 nM | 14 fold | 0.269 nM | 9 fold | 0.089 nM | 0.098 nM | – |
| B11 | 0.244 nM | 0.304 nM | 8.66 nM | 13 fold | 0.265 nM | 10 fold | 0.092 nM | 0.103 nM | 0.401 nM |
